Laboratory results as given in paper PMC4705995, “The Protein Interaction of RNA Helicase B (RhlB) and Polynucleotide Phosphorylase (PNPase) Contributes to the Homeostatic Control of Cysteine in Escherichia coli*” (The Journal of Biological Chemistry, 2015).

T1: FlagRhlB^P238L (Flag-tagged RhlB^P238L) (Escherichia coli, UniProt P0A8J8 1-421, P238L)
T1 sequence: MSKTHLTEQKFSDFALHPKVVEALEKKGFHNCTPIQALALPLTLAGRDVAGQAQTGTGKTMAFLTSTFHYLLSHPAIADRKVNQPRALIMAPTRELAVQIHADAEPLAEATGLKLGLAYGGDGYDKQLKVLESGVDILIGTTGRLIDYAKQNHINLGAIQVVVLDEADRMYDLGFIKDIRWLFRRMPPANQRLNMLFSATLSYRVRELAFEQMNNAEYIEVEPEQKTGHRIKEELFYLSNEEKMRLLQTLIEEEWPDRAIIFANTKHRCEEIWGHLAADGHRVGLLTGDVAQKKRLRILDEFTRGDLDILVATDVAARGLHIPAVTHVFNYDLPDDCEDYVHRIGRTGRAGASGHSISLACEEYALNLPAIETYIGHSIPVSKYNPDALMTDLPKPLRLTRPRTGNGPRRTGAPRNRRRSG

T2: FlagPNPase (Flag-tagged PNP) (Escherichia coli, UniProt P05055 1-711)
T2 construct: polynucleotide phosphorylase (PNPase) of Escherichia coli; also called pFlagPNP; polynucleotide phosphorylase
T2 sequence (looked up): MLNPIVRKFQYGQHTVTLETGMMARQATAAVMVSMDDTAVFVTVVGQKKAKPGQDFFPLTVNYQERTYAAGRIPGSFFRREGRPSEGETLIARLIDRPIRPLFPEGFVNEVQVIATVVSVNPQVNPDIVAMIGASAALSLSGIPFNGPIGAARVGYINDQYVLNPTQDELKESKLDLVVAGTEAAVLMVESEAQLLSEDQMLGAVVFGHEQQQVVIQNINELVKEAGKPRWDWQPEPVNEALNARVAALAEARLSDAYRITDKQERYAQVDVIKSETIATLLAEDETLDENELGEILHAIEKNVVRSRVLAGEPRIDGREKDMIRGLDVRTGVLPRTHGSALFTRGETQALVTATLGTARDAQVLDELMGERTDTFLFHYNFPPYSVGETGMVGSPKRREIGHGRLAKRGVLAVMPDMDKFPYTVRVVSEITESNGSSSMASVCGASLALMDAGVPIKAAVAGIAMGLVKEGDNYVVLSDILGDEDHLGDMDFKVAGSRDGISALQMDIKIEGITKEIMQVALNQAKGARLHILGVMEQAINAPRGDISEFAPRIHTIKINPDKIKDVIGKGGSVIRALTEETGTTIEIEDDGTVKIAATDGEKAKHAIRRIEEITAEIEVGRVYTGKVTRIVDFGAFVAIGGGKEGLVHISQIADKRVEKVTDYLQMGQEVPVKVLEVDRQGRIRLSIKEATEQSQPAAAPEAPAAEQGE

B1: FlagPNPase (Flag-tagged PNP) (enzyme)
chain: MLNPIVRKFQYGQHTVTLETGMMARQATAAVMVSMDDTAVFVTVVGQKKAKPGQDFFPLTVNYQERTYAAGRIPGSFFRREGRPSEGETLIARLIDRPIRPLFPEGFVNEVQVIATVVSVNPQVNPDIVAMIGASAALSLSGIPFNGPIGAARVGYINDQYVLNPTQDELKESKLDLVVAGTEAAVLMVESEAQLLSEDQMLGAVVFGHEQQQVVIQNINELVKEAGKPRWDWQPEPVNEALNARVAALAEARLSDAYRITDKQERYAQVDVIKSETIATLLAEDETLDENELGEILHAIEKNVVRSRVLAGEPRIDGREKDMIRGLDVRTGVLPRTHGSALFTRGETQALVTATLGTARDAQVLDELMGERTDTFLFHYNFPPYSVGETGMVGSPKRREIGHGRLAKRGVLAVMPDMDKFPYTVRVVSEITESNGSSSMASVCGASLALMDAGVPIKAAVAGIAMGLVKEGDNYVVLSDILGDEDHLGDMDFKVAGSRDGISALQMDIKIEGITKEIMQVALNQAKGARLHILGVMEQAINAPRGDISEFAPRIHTIKINPDKIKDVIGKGGSVIRALTEETGTTIEIEDDGTVKIAATDGEKAKHAIRRIEEITAEIEVGRVYTGKVTRIVDFGAFVAIGGGKEGLVHISQIADKRVEKVTDYLQMGQEVPVKVLEVDRQGRIRLSIKEATEQSQPAAAPEAPAAEQGE
B2: FlagRhlB^wt (Flag-tagged wild-type RhlB) (enzyme, Escherichia coli, UniProt P0A8J8 1-421, looked up)
chain: MSKTHLTEQKFSDFALHPKVVEALEKKGFHNCTPIQALALPLTLAGRDVAGQAQTGTGKTMAFLTSTFHYLLSHPAIADRKVNQPRALIMAPTRELAVQIHADAEPLAEATGLKLGLAYGGDGYDKQLKVLESGVDILIGTTGRLIDYAKQNHINLGAIQVVVLDEADRMYDLGFIKDIRWLFRRMPPANQRLNMLFSATLSYRVRELAFEQMNNAEYIEVEPEQKTGHRIKEELFYPSNEEKMRLLQTLIEEEWPDRAIIFANTKHRCEEIWGHLAADGHRVGLLTGDVAQKKRLRILDEFTRGDLDILVATDVAARGLHIPAVTHVFNYDLPDDCEDYVHRIGRTGRAGASGHSISLACEEYALNLPAIETYIGHSIPVSKYNPDALMTDLPKPLRLTRPRTGNGPRRTGAPRNRRRSG
notes: RNA helicase B (RhlB) of Escherichia coli; also called pFlagRhlB^wt
B3: FlagRhlB^P238L (Flag-tagged RhlB^P238L) (enzyme, Escherichia coli, UniProt P0A8J8 1-421, looked up)
chain: MSKTHLTEQKFSDFALHPKVVEALEKKGFHNCTPIQALALPLTLAGRDVAGQAQTGTGKTMAFLTSTFHYLLSHPAIADRKVNQPRALIMAPTRELAVQIHADAEPLAEATGLKLGLAYGGDGYDKQLKVLESGVDILIGTTGRLIDYAKQNHINLGAIQVVVLDEADRMYDLGFIKDIRWLFRRMPPANQRLNMLFSATLSYRVRELAFEQMNNAEYIEVEPEQKTGHRIKEELFYLSNEEKMRLLQTLIEEEWPDRAIIFANTKHRCEEIWGHLAADGHRVGLLTGDVAQKKRLRILDEFTRGDLDILVATDVAARGLHIPAVTHVFNYDLPDDCEDYVHRIGRTGRAGASGHSISLACEEYALNLPAIETYIGHSIPVSKYNPDALMTDLPKPLRLTRPRTGNGPRRTGAPRNRRRSG
notes: RNA helicase B (RhlB) of Escherichia coli with P238L, introduced into pFlagRhlB by site-directed mutagenesis; also called pFlagRhlB^P238L

How the values were obtained:
[1] = biological target: T1, FlagRhlB^P238L (Flag-tagged RhlB^P238L); experiment: SPR
[2] = biological target: T1, FlagRhlB^P238L (Flag-tagged RhlB^P238L); experiment: SPR; remark: listed apart in the source
[3] = biological target: T2, FlagPNPase (Flag-tagged PNP); experiment: SPR; Biacore X; purified FlagPNPase immobilised on a CM5 chip by amine coupling; 0.75 to 24 uM FlagRhlB injected at 10 ul/min, 25 °C; details: both partners purified
[4] = biological target: B1; experiment: SPR
[5] = biological target: B1; experiment: SPR

Binder	koff [1] [s⁻¹]	Kd [2] [µM]	kon [3] [M⁻¹ s⁻¹]	koff [4] [s⁻¹]	Kd [5] [µM]
B1	0.00207	6.64			
B2			1260	0.0021	1.67
B3			311		
